Measurements as given in patent US20040156847A1.

Target: human CD30 expressed on human peripheral blood eosinophils (human) (UniProt P28908)
Experiment: cell-based or functional assay

Chain of UniProt P28908 (P28908 19-595): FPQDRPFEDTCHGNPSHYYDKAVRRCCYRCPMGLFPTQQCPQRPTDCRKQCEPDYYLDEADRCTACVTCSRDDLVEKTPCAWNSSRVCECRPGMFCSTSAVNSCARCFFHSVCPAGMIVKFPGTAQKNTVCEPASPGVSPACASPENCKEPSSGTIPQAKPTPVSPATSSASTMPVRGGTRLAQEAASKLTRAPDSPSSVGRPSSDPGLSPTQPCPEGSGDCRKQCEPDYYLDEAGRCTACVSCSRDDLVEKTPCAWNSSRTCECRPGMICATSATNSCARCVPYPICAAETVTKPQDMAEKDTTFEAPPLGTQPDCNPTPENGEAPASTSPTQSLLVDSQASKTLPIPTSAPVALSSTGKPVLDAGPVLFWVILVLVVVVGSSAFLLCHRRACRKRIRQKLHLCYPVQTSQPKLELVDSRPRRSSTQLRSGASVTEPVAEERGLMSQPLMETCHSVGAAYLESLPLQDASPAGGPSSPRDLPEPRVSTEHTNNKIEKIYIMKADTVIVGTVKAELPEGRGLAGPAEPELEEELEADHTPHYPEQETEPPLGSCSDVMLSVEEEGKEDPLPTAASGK

apoptosis of human peripheral blood eosinophils after 4 hours, antibody immobilized at 10 µg/ml [%] | apoptosis of human peripheral blood eosinophils (FITC-Annexin V, flow cytometry), antibody immobilized at 0.01 µg/ml, 4 hours [%] | apoptosis of human peripheral blood eosinophils (FITC-Annexin V, flow cytometry), antibody immobilized at 0.1 µg/ml, 4 hours [%] | apoptosis of human peripheral blood eosinophils (FITC-Annexin V, flow cytometry), antibody immobilized at 1 µg/ml, 4 hours [%] | apoptosis of human peripheral blood eosinophils (FITC-Annexin V, flow cytometry), antibody immobilized at 10 µg/ml, 4 hours [%] | apoptosis of human peripheral blood eosinophils after 1 hour, antibody immobilized at 10 µg/ml [%] | apoptosis of human peripheral blood eosinophils after 1 hour, antibody immobilized at 10 µg/ml (comparison with anti-Fas CH-11) [%] | apoptosis of human peripheral blood eosinophils after 4 hours, antibody immobilized at 10 µg/ml (comparison with anti-Fas CH-11) [%] | apoptosis of human peripheral blood eosinophils after 4 hours, antibody immobilized on polystyrene microbeads [%] | apoptosis of human peripheral blood eosinophils after 4 hours, ligand immobilized at 10 µg/ml [%] | apoptosis of human peripheral blood eosinophils after 4 hours, ligand immobilized at 100 µg/ml [%] | Substance
30 | – | – | – | – | – | – | – | – | – | – | anti-mouse CD30 monoclonal antibody YMSM636.4.10 (Serotec Ltd, Oxford UK)
70 | 7.8 | 11.4 | 44.8 | 71.9 | 50 | 50 | 70 | 44 | – | – | mouse anti-human CD30 monoclonal antibody Ber-H8 (PharMingen, San Diego, Calif.)
70 | – | – | 16.3 | 78.8 | 50 | 50 | 70 | 27.9 | – | – | mouse anti-human CD30 monoclonal antibody HRS-4 (Immunotech, Marseilles, France)
– | – | – | – | – | – | – | – | – | 28 | 35 | recombinant mouse CD30 ligand (R&D Systems Inc. Minneapolis, USA) (from UniProt P32972 68-239)
